Laboratory results as given in patent US20040253685.
Positions count from the first letter of the chain named.

Columns and labels:
[1] = target: T1, wild type bovine endothelial nitric oxide synthase (eNOS) (UniProt P29473)
T1 sequence: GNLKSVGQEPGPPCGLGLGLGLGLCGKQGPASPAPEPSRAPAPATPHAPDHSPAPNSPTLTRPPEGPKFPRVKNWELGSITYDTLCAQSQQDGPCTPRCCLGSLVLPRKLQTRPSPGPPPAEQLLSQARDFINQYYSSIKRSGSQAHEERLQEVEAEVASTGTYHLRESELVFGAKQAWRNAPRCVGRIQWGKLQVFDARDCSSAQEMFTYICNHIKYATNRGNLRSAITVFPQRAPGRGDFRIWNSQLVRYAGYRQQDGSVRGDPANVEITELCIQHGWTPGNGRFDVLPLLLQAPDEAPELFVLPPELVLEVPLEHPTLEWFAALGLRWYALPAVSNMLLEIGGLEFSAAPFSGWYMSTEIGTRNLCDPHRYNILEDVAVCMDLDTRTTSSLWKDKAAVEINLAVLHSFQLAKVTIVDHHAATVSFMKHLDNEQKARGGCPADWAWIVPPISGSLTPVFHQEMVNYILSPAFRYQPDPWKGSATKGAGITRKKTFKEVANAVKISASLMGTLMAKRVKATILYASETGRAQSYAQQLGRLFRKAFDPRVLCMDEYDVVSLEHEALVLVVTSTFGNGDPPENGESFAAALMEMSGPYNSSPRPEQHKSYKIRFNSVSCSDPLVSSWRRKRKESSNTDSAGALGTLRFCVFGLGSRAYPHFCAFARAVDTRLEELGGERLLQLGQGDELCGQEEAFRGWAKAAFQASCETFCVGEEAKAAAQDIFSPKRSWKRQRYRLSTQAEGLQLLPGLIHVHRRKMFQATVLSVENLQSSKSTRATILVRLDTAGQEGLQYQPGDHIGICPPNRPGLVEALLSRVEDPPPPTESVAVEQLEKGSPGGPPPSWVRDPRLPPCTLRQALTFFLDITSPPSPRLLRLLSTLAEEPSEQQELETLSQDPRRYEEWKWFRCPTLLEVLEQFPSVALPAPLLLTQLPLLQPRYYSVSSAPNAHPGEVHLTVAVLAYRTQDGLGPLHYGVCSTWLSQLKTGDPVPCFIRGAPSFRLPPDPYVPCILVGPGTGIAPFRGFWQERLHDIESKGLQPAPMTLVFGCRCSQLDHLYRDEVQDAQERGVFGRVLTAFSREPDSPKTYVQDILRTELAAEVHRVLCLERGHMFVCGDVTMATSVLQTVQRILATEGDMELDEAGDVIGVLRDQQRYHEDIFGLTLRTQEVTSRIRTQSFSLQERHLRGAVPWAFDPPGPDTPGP

[2] = test system: histone 2B
[3] = test system: mutant eNOS peptide, amino acids 1174-1194 with S1179 changed to an alanine
[4] = target: T2, eNOS S1179A (bovine) (UniProt P29473)
T2 sequence: T1 sequence with S1178A

[5] = test system: T3, wild-type eNOS peptide, amino acids 1174-1194
T3 sequence: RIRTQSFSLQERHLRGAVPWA

Substance	in vitro kinase reaction, incorporation of 32P into the substrate [1]	in vitro kinase reaction, incorporation of 32P into the substrate [2]	further results
constitutively active form of Akt (myr-Akt)	–	–	basal production of NO from adenovirus infected BLMVEC [1]: myr-Akt stimulates the basal production of NO from BLMVEC
HA-tagged wild-type Akt (protein kinase B)	115.4±3.8 pmol of ATP/nmol substrate	69.3±2.9 ... pmol of ATP/nmol substrate	–
recombinant Akt purified from baculovirus infected SF9 cells	–	–	in vitro kinase reaction, phosphate incorporated into the peptide (Cerenkov counting) [3]: the alanine mutant peptide which incorporated 0.22±0.02 nmol phosphate/mg; in vitro kinase reaction with recombinant Akt, incorporation of 32P into eNOS [4]: mutation of S1179 to A markedly reduces Akt-dependent phosphorylation of eNOS compared to the wild-type protein; in vitro kinase reaction, phosphate incorporated into the peptide (Cerenkov counting) [5]: wild-type peptide incorporated 24.6±3.7 nmol phosphate/mg
HA-tagged kinase inactive Akt (K179M)	the inactive Akt did not significantly increase histone or eNOS phosphorylation	the inactive Akt did not significantly increase histone or eNOS phosphorylation	–
